“And” between values parts separate entries of the source, which are not always exact repeats. Identical values can stand only once.
T1: vitamin K-dependent protein S (ProS) (human, UniProt P07225 42-676, N-glycans at N499, N509, N530)
T1 construct: vitamin K-dependent protein S (ProS), human serum protein; GLA domain, four EGF-like domains (E1-E4), two laminin G-like domains (LG1-2); without signal peptide and propeptide; source: purified from pooled plasma of more than 16 healthy donors together with C4BP (bought: Complement Technology, Inc); endogenous, pooled healthy donor serum (SEC LC-MS)
T1 sequence (looked up): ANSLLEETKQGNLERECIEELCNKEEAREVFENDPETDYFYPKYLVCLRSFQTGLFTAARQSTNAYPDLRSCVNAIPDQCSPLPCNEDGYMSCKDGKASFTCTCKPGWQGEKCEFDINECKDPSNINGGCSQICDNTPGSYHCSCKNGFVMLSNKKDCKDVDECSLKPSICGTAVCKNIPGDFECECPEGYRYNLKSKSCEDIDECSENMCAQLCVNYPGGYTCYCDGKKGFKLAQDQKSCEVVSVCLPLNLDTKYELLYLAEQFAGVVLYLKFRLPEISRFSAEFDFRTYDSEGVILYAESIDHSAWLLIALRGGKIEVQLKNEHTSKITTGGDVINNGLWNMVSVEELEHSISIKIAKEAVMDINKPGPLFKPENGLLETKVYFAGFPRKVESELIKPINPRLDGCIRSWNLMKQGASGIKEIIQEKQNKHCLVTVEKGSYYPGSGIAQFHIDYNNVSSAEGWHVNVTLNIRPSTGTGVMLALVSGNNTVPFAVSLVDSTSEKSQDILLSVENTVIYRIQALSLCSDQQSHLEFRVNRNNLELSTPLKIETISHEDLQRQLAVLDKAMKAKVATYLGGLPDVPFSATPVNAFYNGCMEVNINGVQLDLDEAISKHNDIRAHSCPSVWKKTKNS

T2: C4b-binding protein beta chain (C4BPβ) (Homo sapiens (Human), UniProt P20851, N-glycans at N64, N71, N98, N117, N154)
T2 chain: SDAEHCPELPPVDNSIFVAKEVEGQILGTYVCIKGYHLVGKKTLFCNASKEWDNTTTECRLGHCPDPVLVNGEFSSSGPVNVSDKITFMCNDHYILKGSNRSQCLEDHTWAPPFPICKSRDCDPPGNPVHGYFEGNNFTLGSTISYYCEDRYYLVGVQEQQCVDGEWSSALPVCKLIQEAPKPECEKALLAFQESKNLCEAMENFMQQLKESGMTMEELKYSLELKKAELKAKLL

B1: C4b-binding protein alpha chain (C4BPα) (natural protein, human, UniProt P04003 49-597, looked up)
chain: NCGPPPTLSFAAPMDITLTETRFKTGTTLKYTCLPGYVRSHSTQTLTCNSDGEWVYNTFCIYKRCRHPGELRNGQVEIKTDLSFGSQIEFSCSEGFFLIGSTTSRCEVQDRGVGWSHPLPQCEIVKCKPPPDIRNGRHSGEENFYAYGFSVTYSCDPRFSLLGHASISCTVENETIGVWRPSPPTCEKITCRKPDVSHGEMVSGFGPIYNYKDTIVFKCQKGFVLRGSSVIHCDADSKWNPSPPACEPNSCINLPDIPHASWETYPRPTKEDVYVVGTVLRYRCHPGYKPTTDEPTTVICQKNLRWTPYQGCEALCCPEPKLNNGEITQHRKSRPANHCVYFYGDEISFSCHETSRFSAICQGDGTWSPRTPSCGDICNFPPKIAHGHYKQSSSYSFFKEEIIYECDKGYILVGQAKLSCSYSHWSAPAPQCKALCRKPELVNGRLSVDKDQYVEPENVTIQCDSGYGVVGPQSITCSGNRTWYPEVPKCEWETPEGCEQVLTGKRLMQCLPNPEDVKMALEVYKLSLEIEQLELQRDSARQSTLDKEL
modifications: N-glycans at N221, N506, N528
notes: eight CCP domains and the C-terminal oligomerization core; without the signal peptide; Disulfide-linked to the other C4BPα chains and to C4BPβ in the assembly; also called α chain; source: endogenous, pooled healthy donor serum (SEC LC-MS)
B2: C4b-binding protein beta chain (C4BPβ) (natural protein, human, UniProt P20851 18-252, looked up)
chain: T2 chain
modifications: N-glycans at N64, N71, N98, N117, N154
notes: three CCP domains; N-terminus S18 after the propeptide cleavage; Disulfide-linked to C4BPα in the assembly; also called β chain; source: endogenous, pooled healthy donor serum (SEC LC-MS)
B3: vitamin K-dependent protein S (ProS) (protein)
chain: T1 sequence (looked up)
modifications: N-glycans at N499, N509, N530

What was measured:
[1] = target: B2; experiment: native MS; Orbitrap charge detection MS (CDMS) of native C4BP, 1 M ammonium acetate pH 7.4, ~1 μM; details: both partners purified
[2] = target: the molecule itself; experiment: cross-linking; C4BP 0.5 g/l in PBS pH 7.4, 1 mM DSS or 5 mM DMTMM, 30 min, room temperature; SDS-PAGE bands digested with trypsin, LC-MS/MS; cross-links kept if found in two of three replicates
[3] = target: B1; experiment: as above; details: both partners purified
[4] = target: T1, vitamin K-dependent protein S (ProS); experiment: as above; details: both partners purified
[5] = target: T2, C4b-binding protein beta chain (C4BPβ); experiment: native CDMS, mass photometry, XL-MS and HS-AFM of co-purified serum C4BP complex; C4BPβ present only disulfide-linked to C4BPα in the serum C4BP assembly (α7β1/α6β1), co-purified with ProS; the non-covalent complex dissociates at pH 2 or in urea

Binder: B1
- stoichiometry N [1]: 7 C4BPα chains per C4BPβ chain and 6 C4BPα chains per C4BPβ chain
- binding result [2]: binds

Binder: B2
- binding result [3]: binds
- binding result [4]: binds

Binder: B3
- binding result [5]: binds

From PMC11251186, “Higher-order structure and proteoforms of co-occurring C4b-binding protein assemblies in human serum” (The EMBO Journal, 2024)
